According to the supplement of paper PMC10724198:
± gives the standard deviation of the averaged measurements.

test system: Saccharomyces cerevisiae; assay: protein stability index of tFT-peptide fusion (C-terminal peptide) (PSI (0-1 scale)); higher = more stable (slower turnover); settings: genetic background: wild type; temperature: 30 C

Going from WLCLAVLVRFPC to WQIGIYILQGLA, the protein stability index falls from 0.3532 ± 0.0026 to 0.256 ± 0.023.

Compared with WSCVGLWGRFCC, WSISFGLLVCWV is lower in protein stability index: 0.448 ± 0.036 for the first, 0.233 ± 0.039 for the second.

Going from WVFVVWFVFVVG to WVGGVLLSVVGG, the protein stability index falls from 0.322 ± 0.016 to 0.245 ± 0.014.

Going from WVRLGRSWTTVG to WVRLWGVLEAQG, the protein stability index falls from 0.422 ± 0.029 to 0.3627 ± 0.0029.

WVSFYLLFFFSF and YFFFPILCFCFF are within error of each other in protein stability index: 0.483 ± 0.023 for the first, 0.419 ± 0.047 for the second.

YFLFLRLVFLFF and YILLRWVNLSCL are within error of each other in protein stability index: 0.23 ± 0.032 for the first, 0.236 ± 0.062 for the second.

YPVAWSSAIIIR and YQKIARVSLAVS are within error of each other in protein stability index: 0.435 ± 0.025 for the first, 0.424 ± 0.015 for the second.

Compared with YVIGLLFVVSGV, YYKGGYLYLRLS is lower in protein stability index: 0.39 ± 0.0085 for the first, 0.253 ± 0.015 for the second.

test system: Saccharomyces cerevisiae; assay: as above; settings: genetic background: das1 deletion; temperature: 30 C
Method: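 MPS profiling in S. cerevisiae of the yeast C-terminome library: the last 12 aa of each annotated ORF are fused to the C-terminus of a sfGFP-mCherry timer, after a GGGS linker. Cells are FACS-sorted into 8 mCherry/sfGFP bins and deep-sequenced. PSI runs from 0 (unstable) to 1 (stable); wild type and das1Δ backgrounds, two technical replicates each.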

AADPLSNDALFK [BRX1 C-terminal 12 aa] and AADRDNKKDEST [XRN1 C-terminal 12 aa] are within error of each other in protein stability index: 0.733 ± 0.063 for the first, 0.6981 ± 0.0034 for the second.

Going from AAGKANKQFAKF [RPS11A C-terminal 12 aa] to AAIPVILAKIKV [SHE4 C-terminal 12 aa], the protein stability index falls from 0.8136 ± 0.0019 to 0.502 ± 0.019.

ACYVQLKKSGAF [COX8 C-terminal 12 aa] and AGATTSRFIPLK [RPS15 C-terminal 12 aa] are within error of each other in protein stability index: 0.6966 ± 0.0035 for the first, 0.685 ± 0.023 for the second.

AGTDKNTHPSSQ [SNT2 C-terminal 12 aa] and AIEEGAGAFLLS [UFD4 C-terminal 12 aa] are within error of each other in protein stability index: 0.692 ± 0.0098 for the first, 0.706 ± 0.03 for the second.

Going from AIFTAFTQVVLI [TOH1 C-terminal 12 aa] to AIHLEAVSLVDC [CIS3 C-terminal 12 aa], the protein stability index rises from 0.4858 ± 0.0044 to 0.599 ± 0.011.

AKELISAIFFGE [TAF6 C-terminal 12 aa] and AKGLAKTEIANQ [GIR2 C-terminal 12 aa] are within error of each other in protein stability index: 0.698 ± 0.057 for the first, 0.686 ± 0.018 for the second.

AKPAYHWQTRYR [KIN3 C-terminal 12 aa] and AKVYFLGRDSSI [NDE1 C-terminal 12 aa] are within error of each other in protein stability index: 0.703 ± 0.021 for the first, 0.708 ± 0.016 for the second.

First: ALENENKRKAKL [CAT2 C-terminal 12 aa]
Second: ALGLAGAVMMLL [SPI1 C-terminal 12 aa]
The protein stability index of the first is higher: 0.79 ± 0.015 for the first, 0.693 ± 0.013 for the second.

ALQKQIKNALPC [PTP2 C-terminal 12 aa] and “ALSCLGHSKIFI [YML094C-A C-terminal 12 aa]” are within error of each other in protein stability index: 0.694 ± 0.024 for the first, 0.7082 ± 0.0041 for the second.

ALSKDGIYTITN [PAU13 C-terminal 12 aa] and AMDYAISIENIV [RPN12 C-terminal 12 aa] are within error of each other in protein stability index: 0.706 ± 0.027 for the first, 0.665 ± 0.015 for the second.

Going from ANFECSSWKFAS [EFM5 C-terminal 12 aa] to APPKLNNSSESE [STE23 C-terminal 12 aa], the protein stability index falls from 0.7167 ± 0.0049 to 0.681 ± 0.0074.

AQGGFAQWATGQ [APS3 C-terminal 12 aa] and AQNFILFHDYLH [YLR365W C-terminal 12 aa] are within error of each other in protein stability index: 0.718 ± 0.0089 for the first, 0.698 ± 0.012 for the second.

ASFVEVNAEVFL [FRS1 C-terminal 12 aa] and ASNGVRLSEIGW [SNZ1 C-terminal 12 aa] are within error of each other in protein stability index: 0.7129 ± 0.0051 for the first, 0.699 ± 0.011 for the second.

ASVIPGGCLGNL [ZPS1 C-terminal 12 aa] and AVASFFLRNKRR [FIS1 C-terminal 12 aa] are within error of each other in protein stability index: 0.703 ± 0.018 for the first, 0.7073 ± 0.0052 for the second.

AVENQFFSQKKK [ACS2 C-terminal 12 aa] and AVNALNEAMDKL [BNA5 C-terminal 12 aa] are within error of each other in protein stability index: 0.707 ± 0.044 for the first, 0.677 ± 0.015 for the second.

Compared with AVYEELVHELFH [PSP1 C-terminal 12 aa], AYEPFSFRAIIE [STV1 C-terminal 12 aa] is lower in protein stability index: 0.72 ± 0.021 for the first, 0.686 ± 0.008 for the second.

First: CAAVEKGPILDA [THI74 C-terminal 12 aa]
Second: CGCQLAVAMTTC [YFL015W-A C-terminal 12 aa]
The protein stability index of the first is higher: 0.691 ± 0.019 for the first, 0.553 ± 0.039 for the second.

Compared with CLILSQYSILMD [ATG18 C-terminal 12 aa], CLMVSFLLLFGV [OLI1 C-terminal 12 aa] is lower in protein stability index: 0.631 ± 0.038 for the first, 0.315 ± 0.0097 for the second.

CLSGGLLRKIPK [TMH18 C-terminal 12 aa] and CPPTIEIGGGGH [MIR1 C-terminal 12 aa] are within error of each other in protein stability index: 0.722 ± 0.087 for the first, 0.712 ± 0.0075 for the second.

Sequence CSLINSCAFFCL [YDR413C C-terminal 12 aa] has a protein stability index of 0.704 ± 0.012.

same assay, conditions: genetic background: wild type; temperature: 30 C

AADPLSNDALFK [BRX1 C-terminal 12 aa] and AADRDNKKDEST [XRN1 C-terminal 12 aa] are within error of each other in protein stability index: 0.737 ± 0.12 for the first, 0.668 ± 0.057 for the second.

First: AAGKANKQFAKF [RPS11A C-terminal 12 aa]
Second: AAIPVILAKIKV [SHE4 C-terminal 12 aa]
The protein stability index of the first is higher: 0.807 ± 0.042 for the first, 0.56 ± 0.13 for the second.

ACYVQLKKSGAF [COX8 C-terminal 12 aa] and AGATTSRFIPLK [RPS15 C-terminal 12 aa] are within error of each other in protein stability index: 0.669 ± 0.024 for the first, 0.652 ± 0.01 for the second.

AGTDKNTHPSSQ [SNT2 C-terminal 12 aa] and AIEEGAGAFLLS [UFD4 C-terminal 12 aa] are within error of each other in protein stability index: 0.694 ± 0.019 for the first, 0.6771 ± 0.0053 for the second.

Going from AIFTAFTQVVLI [TOH1 C-terminal 12 aa] to AIHLEAVSLVDC [CIS3 C-terminal 12 aa], the protein stability index rises from 0.4983 ± 0.00094 to 0.611 ± 0.024.

AKELISAIFFGE [TAF6 C-terminal 12 aa] and AKGLAKTEIANQ [GIR2 C-terminal 12 aa] are within error of each other in protein stability index: 0.6614 ± 0.0044 for the first, 0.656 ± 0.013 for the second.

AKPAYHWQTRYR [KIN3 C-terminal 12 aa] and AKVYFLGRDSSI [NDE1 C-terminal 12 aa] are within error of each other in protein stability index: 0.665 ± 0.017 for the first, 0.741 ± 0.076 for the second.

ALENENKRKAKL [CAT2 C-terminal 12 aa] and ALGLAGAVMMLL [SPI1 C-terminal 12 aa] are within error of each other in protein stability index: 0.798 ± 0.11 for the first, 0.746 ± 0.025 for the second.

ALQKQIKNALPC [PTP2 C-terminal 12 aa] and “ALSCLGHSKIFI [YML094C-A C-terminal 12 aa]” are within error of each other in protein stability index: 0.69 ± 0.029 for the first, 0.706 ± 0.012 for the second.

Going from ALSKDGIYTITN [PAU13 C-terminal 12 aa] to AMDYAISIENIV [RPN12 C-terminal 12 aa], the protein stability index falls from 0.679 ± 0.014 to 0.646 ± 0.015.

Going from ANFECSSWKFAS [EFM5 C-terminal 12 aa] to APPKLNNSSESE [STE23 C-terminal 12 aa], the protein stability index rises from 0.646 ± 0.0085 to 0.674 ± 0.0091.

AQGGFAQWATGQ [APS3 C-terminal 12 aa] and AQNFILFHDYLH [YLR365W C-terminal 12 aa] are within error of each other in protein stability index: 0.683 ± 0.04 for the first, 0.711 ± 0.032 for the second.

ASFVEVNAEVFL [FRS1 C-terminal 12 aa] and ASNGVRLSEIGW [SNZ1 C-terminal 12 aa] are within error of each other in protein stability index: 0.7111 ± 0.0032 for the first, 0.694 ± 0.027 for the second.

ASVIPGGCLGNL [ZPS1 C-terminal 12 aa] and AVASFFLRNKRR [FIS1 C-terminal 12 aa] are within error of each other in protein stability index: 0.685 ± 0.018 for the first, 0.69 ± 0.027 for the second.

AVENQFFSQKKK [ACS2 C-terminal 12 aa] and AVNALNEAMDKL [BNA5 C-terminal 12 aa] are within error of each other in protein stability index: 0.697 ± 0.034 for the first, 0.696 ± 0.11 for the second.

AVYEELVHELFH [PSP1 C-terminal 12 aa] and AYEPFSFRAIIE [STV1 C-terminal 12 aa] are within error of each other in protein stability index: 0.675 ± 0.031 for the first, 0.723 ± 0.035 for the second.

Compared with CAAVEKGPILDA [THI74 C-terminal 12 aa], “CGCQLAVAMTTC [YFL015W-A C-terminal 12 aa]” is lower in protein stability index: 0.682 ± 0.021 for the first, 0.513 ± 0.013 for the second.

Going from CLILSQYSILMD [ATG18 C-terminal 12 aa] to CLMVSFLLLFGV [OLI1 C-terminal 12 aa], the protein stability index falls from 0.616 ± 0.045 to 0.3088 ± 0.0016.

Going from CLSGGLLRKIPK [TMH18 C-terminal 12 aa] to CPPTIEIGGGGH [MIR1 C-terminal 12 aa], the protein stability index rises from 0.6861 ± 0.006 to 0.706 ± 0.0053.

Work on CSLINSCAFFCL [YDR413C C-terminal 12 aa] yielded a protein stability index of 0.647 ± 0.013.
